Results reported in US20030044400A1, “Composition and method for treating cells” (priority 2001, published 2003).

How the values were obtained:
[1] = Determination of LD50 of Fetuin in Rats; assay type: in vivo, Sprague-Dawley albino rats
Description: The Sprague-Dawley albino rats weighed 170-210 g and were divided into 4 groups, each group including 5 males and 5 females. The control group received 1 ml of saline intraperitoneally for 5 days. The other three groups were given 8.35 mg, 25 mg and 250 mg per kg body wt. of Fetuin 0.1 g/ml. All volumes were made up to 1 ml with sterile pyrogene free saline. The observation period was a least 14 days. If a visible toxic reaction occurs the observation period may be increased until visible signs of toxicity disappear. If any deaths occur during this period, the animal will be immediately autopsied to determine cause of death. During the observation period a careful clinical examination is made each day. These observations include skin and fur, eyes and mucous membranes, respiratory system, circulatory system, autonomic and central nervous system, somatomator activity and behavior patterns. Particular attention will be directed to observation of tremors, convulsions, salivation, diarrhea, lethargy, sleep or coma. Individual weights of the animals are determined shortly before the test substance is administered, and weekly thereafter. Any weight changes are recorded. At the end of the test, the surviving animals are weighed and sacrificed. Prior to sacrifice, blood is drawn from each animal to determine the serum levels of fetuin. After sacrifice, a gross necropsy is done on all animals. Any gross pathological changes are recorded and pertinent tissues preserved in 10% formalin for subsequent histopathology. The observations recorded are tabulated to see if there is any correlation between mortality and/or symptoms and the dose. The LD50 for each sex is determined at 14 days, using the method of Litchfield and Wilcoxon. A dose mortality curve and slope is determined if data justify it. A table of body weight gains or loses is constructed. Necropsy finding is reported.

[2] = tested on: CCD 39 Lu (normal lung fibroblast); test: Fetuin-induced apoptosis, Hoechst staining confirmed by MTS assay; assay type: cell-based, Human
Description: (§1) The purified fetuin was tested on various cancer cell lines. […] The DNA condensation and breakage of nuclei which are the characteristics for apoptosis were observed by staining the cell with Hoechst dye at 0.1 ug/ml.
(§2) Various concentrations of Zn-charged fetuin prepared as described were incubated with cell lines for 6 hr. Percent of cell under apoptosis was determined by Hoechst staining and confirmed by MTS assay. The concentration of Zn-charged fetuin for the induction of 50% of cells under apoptosis (LD50) was determined. Each data represents the average of three assays.

[3] = tested on: CCD 18 Co (normal colon fibroblast); test: as above; assay type: cell-based, Human
Description: as §1, §2

[4] = tested on: Hep G2 cells; test: as above; assay type: cell-based, Human
Description: as §1, §2

[5] = tested on: PC-3 cells; test: as above; assay type: cell-based, Human
Description: as §1, §2

[6] = tested on: MCF-7 cells; test: as above; assay type: cell-based, Human
Description: as §1, §2

[7] = tested on: Colo 205 cells; test: as above; assay type: cell-based, Human
Description: as §1, §2

[8] = tested on: WI 38 (normal lung fibroblast); test: as above; assay type: cell-based, Human
Description: as §1, §2

[9] = tested on: HL-60 cells; test: as above; assay type: cell-based, Human
Description: as §1, §2

[10] = tested on: Calu-1 cells; test: as above; assay type: cell-based, Human
Description: as §1, §2

[11] = tested on: transforming growth factor-beta (TGF); test: Binding of transforming growth factor-beta
[12] = tested on: PC-3 induced tumor; test: Prostate Tumor Inhibition Model (PC-3, nude mice); assay type: in vivo, nude adult male mice; conditions: for Avg. Weight Tumor / Avg. Weight mice / Total Weight Tumor: nude mice with PC-3 tumors
Description: The 30-35 g nude adult male mice were used for this study. The inoculum of PC-3 cells applied to induce tumor formation was adjusted with RPMI-1640 to 2×10^7 cells/0.1 ml. To induce tumor formation, a 0.1 ml suspension of PC-3 was injected subcutaneously at a site between the ears using a 26 gauge, ⅜″ needle. The tumors were allowed to grow for 38 days. The mice in the control group received 0.1 ml saline intraperitoneally for 10 days. Mice in the treated group received 10 consecutive 0.1 ml intraperitoneal injections of Fetuin adjusted by dilution in sterile deionized water to deliver dose concentration of 0.1 ml, 0.01 ml and 0.001 ml at 10 mg/ml. Tumors were weighed individually when the mice were sacrificed for subsequent histopathology study.

[13] = tested on: PC-12 cells; test: Apoptosis of PC-12 cells in the presence of serum; assay type: cell-based; conditions: PC-12 cells in 10% horse serum+5% FBS; 5 uM Fetuin
Description: PC-12 cells were seeded in 10% heat-inactivated horse serum+5% FBS+RPMI 1640 media for 1-2 days and treated with 5 uM Fetuin. […] The apoptosis-inducing activity of Fetuin at high concentration can be applied in therapy of neuroblastoma.

[14] = rats, 5 female, 8.35 mg/kg Fetuin
[15] = rats, 5 female, 8.35 mg/kg Fetuin ip
[16] = rats, 5 female, 25 mg/kg Fetuin
[17] = rats, 5 female, 25 mg/kg Fetuin ip
[18] = rats, 5 female, 250 mg/kg Fetuin
[19] = rats, 5 female, 250 mg/kg Fetuin ip
[20] = rats, 5 male, 8.35 mg/kg Fetuin
[21] = rats, 5 male, 8.35 mg/kg Fetuin ip
[22] = rats, 5 male, 25 mg/kg Fetuin ip
[23] = rats, 5 male, 250 mg/kg Fetuin ip
[24] = Zn-charged fetuin, 6 hr, average of three assays
[25] = purified fetuin, Hoechst dye 0.1 ug/ml
[26] = Fetuin 0.001 ml × 10 ip (10 mg/ml)
[27] = Fetuin 0.01 ml × 10 ip (10 mg/ml)
[28] = Fetuin 0.1 ml × 10 ip (10 mg/ml)

Fetuin: Fetal bovine fetuin purified from fetal bovine serum by modified Spiro method; 60 Kd glycoprotein, homologue of alpha 2-HS glycoprotein
necropsy ([1]; all of the rats, 8.35, 25 and 250 mg per kg): appeared to be normal
Spleen Wt. (gm) [1, 14]: 0.513 gm
Thymus Wt. (gm) [1, 14]: 0.481 gm
Final Wt. (gm) [1, 15]: 203.5 gm
Initial Wt. (gm) [1, 15]: 170.2 gm
Wt. Gain Total (gm) [1, 15]: 33.3 gm
Spleen Wt. (gm) [1, 16]: 0.714 gm
Thymus Wt. (gm) [1, 16]: 0.485 gm
Final Wt. (gm) [1, 17]: 218.3 gm
Initial Wt. (gm) [1, 17]: 190.3 gm
Wt. Gain Total (gm) [1, 17]: 28.0 gm
Spleen Wt. (gm) [1, 18]: 0.578 gm
Thymus Wt. (gm) [1, 18]: 0.619 gm
Final Wt. (gm) [1, 19]: 201.7 gm
Initial Wt. (gm) [1, 19]: 164.2 gm
Wt. Gain Total (gm) [1, 19]: 37.5 gm
Spleen Wt. (gm) [1, 20]: 0.745 gm
Thymus Wt. (gm) [1, 20]: 0.599 gm
Final Wt. (gm) [1, 21]: 283.7 gm
Initial Wt. (gm) [1, 21]: 233.5 gm
Wt. Gain Total (gm) [1, 21]: 50.2 gm
Spleen Wt. (gm) ([1]; rats, 5 male, 25 mg/kg Fetuin): 0.796 gm
Thymus Wt. (gm) ([1]; rats, 5 male, 25 mg/kg Fetuin): 0.525 gm
Final Wt. (gm) [1, 22]: 227.5 gm
Initial Wt. (gm) [1, 22]: 174.5 gm
Wt. Gain Total (gm) [1, 22]: 53.0 gm
Spleen Wt. (gm) ([1]; rats, 5 male, 250 mg/kg Fetuin): 0.777 gm
Thymus Wt. (gm) ([1]; rats, 5 male, 250 mg/kg Fetuin): 0.595 gm
Final Wt. (gm) [1, 23]: 253.3 gm
Initial Wt. (gm) [1, 23]: 186.5 gm
Wt. Gain Total (gm) [1, 23]: 66.8 gm
mortality ([1]; rats, 8.35, 25 and 250 mg per kg ip, observation at least 14 days): no mortality
LD50 of Fetuin-induced Apoptosis ([2]; CCD 39 Lu, Zn-charged fetuin, 6 hr, average of three assays): >100 µM
induction of apoptosis ([2]; CCD39Lu, purified fetuin, Hoechst dye 0.1 ug/ml): did not induce apoptosis
LD50 of Fetuin-induced Apoptosis ([3]; CCD 18 Co, Zn-charged fetuin, 6 hr, average of three assays): >100 µM
induction of apoptosis ([3]; CCD18Co, purified fetuin, Hoechst dye 0.1 ug/ml): did not induce apoptosis
LD50 of Fetuin-induced Apoptosis ([4]; Hep G2, Zn-charged fetuin, 6 hr, average of three assays): 20 µM
induction of apoptosis ([4]; HepG2, purified fetuin, Hoechst dye 0.1 ug/ml): strongly induced apoptosis
LD50 of Fetuin-induced Apoptosis [5, 24]: 1 µM
induction of apoptosis [5, 25]: strongly induced apoptosis
LD50 of Fetuin-induced Apoptosis [6, 24]: 8 µM
induction of apoptosis [6, 25]: strongly induced apoptosis
LD50 of Fetuin-induced Apoptosis [7, 24]: 5 µM
induction of apoptosis [7, 25]: strongly induced apoptosis
LD50 of Fetuin-induced Apoptosis ([8]; WI 38, Zn-charged fetuin, 6 hr, average of three assays): >100 µM
induction of apoptosis ([8]; WI-38, purified fetuin, Hoechst dye 0.1 ug/ml): did not induce apoptosis
LD50 of Fetuin-induced Apoptosis ([9]; HL-60, Zn-charged fetuin, 6 hr, average of three assays): 5 µM
induction of apoptosis ([9]; HL-60, purified fetuin, Hoechst dye 0.1 ug/ml): strongly induced apoptosis
apoptosis of HL-60 cells ([9]; at 1 uM): induce apoptosis
LD50 of Fetuin-induced Apoptosis [10, 24]: 4 µM
induction of apoptosis [10, 25]: strongly induced apoptosis
binding of transforming growth factor-beta (TGF) [11]: high affinity
prostate tumor size compared to the control group ([12]; highest doses): 40%
Avg. Weight Tumor [12, 26]: 2.03 g
Avg. Weight mice [12, 26]: 33.9 g
Total Weight Tumor [12, 26]: 6.1 g
Avg. Weight Tumor [12, 27]: 2.08 g
Avg. Weight mice [12, 27]: 35.3 g
Total Weight Tumor [12, 27]: 6.24 g
Avg. Weight Tumor [12, 28]: 1.01 g
Avg. Weight mice [12, 28]: 32.0 g
Total Weight Tumor [12, 28]: 3.04 g
apoptosis-inducing activity [13]: apoptosis-inducing activity was observed
